Measured values taken from the DeepSol protein solubility set.

Assay: soluble on expression in E. coli; label from the status in PepcDB or PDB records

Row | Sequence | soluble on expression in E. coli
1 | MSEDWPQHFPPRGTVPDAEVYDQFISASTLQWWYVNAHLTVKGEDNSSLAFFASFFRQAGDNCPTAATKYYDACVWALIDLKNKKCYAESALDPESIDQLKLRLDPAVMGRKLEHVEVALLELLNKGRVPRPDRLLKRKAVYTQHPFSIALDDSCVMTIAQEGSARRYTFSLTNAADDVHVEVCLETQQQPVLHGKDGCVNGMYYYYFPSMSVTGYVVVKGLKREVTGLGWYDREVGGSTAEVDREAKYTWSWLSLHASNMSQLSIFYISGNAEDEGKERVIVETRADGSRHYHDDLIMETNKSWSSLVTFMQYPSEFRLCSASMGLDVTIHTAFDAQEIGTVLVGGAGFYEGVVEGSGVCSGDAVTLRGFFEYKKNAAPYRNTSELLKYVGSYVHGALEEIYPLAASDSWLSENVLGRYAMDRGAPADKICETLFRPVRSIIDRGGKSWRSLILVSCCNALSRQYFDCRRYIAVAELLHVGSLIIDDIQDNSVVRRGGKCVHVEYGVATAINAGSACYFMGPRAARIQDLPPEKASRIYQLYFDVLLAGHAGQGLDIYRLDYLMPKVVETGDASTLFDALDAIHTYKTGGAVGALCSMACVLCEAPTVLSEAVERFGLALGLAFQIVDDALNIRGFEENLKEEAEDIKDGKITYPTAIAMGRLEAADRQTLWAILRKPTKEAADIQQAVELIMKVDATSECFLIARHRLQEMWNALDPLLEDSFPKLLMRTFCSFLVERKY | soluble
2 | MSFLISFDKSKKHPAHLQLANNLKIALALEYASKNLKPEVDNDNAAMELRNTKEPFLLFDANAILRYVMDDFEGQTSDKYQFALASLQNLLYHKELPQQHVEVLTNKAIENYLVELKEPLTTTDLILFANVYALNSSLVHSKFPELPSKVHNAVALAKKHVPRDSSSFKNIGAVKIQADLTVKPKDSEILPKPNERNILITSALPYVNNVPHLGNIIGSVLSADIFARYCKGRNYNALFICGTDEYGTATETKALEEGVTPRQLCDKYHKIHSDVYKWFQIGFDYFGRTTTDKQTEIAQHIFTKLNSNGYLEEQSMKQLYCPVHNSYLADRYVEGECPKCHYDDARGDQCDKCGALLDPFELINPRCKLDDASPEPKYSDHIFLSLDKLESQISEWVEKASEEGNWSKNSKTITQSWLKDGLKPRCITRDLVWGTPVPLEKYKDKVLYVWFDATIGYVSITSNYTKEWKQWWNNPEHVSLYQFMGKDNVPFHTVVFPGSQLGTEENWTMLHHLNTTEYLQYENGKFSKSRGVGVFGNNAQDSGISPSVWRYYLASVRPESSDSHFSWDDFVARNNSELLANLGNFVNRLIKFVNAKYNGVVPKFDPKKVSNYDGLVKDINEILSNYVKEMELGHERRGLEIAMSLSARGNQFLQENKLDNTLFSQSPEKSDAVVAVGLNIIYAVSSIITPYMPEIGEKINKMLNAPALKIDDRFHLAILEGHNINKAEYLFQRIDEKKIDEWRAKYGGQQV | not soluble
3 | MGSDKIHHHHHHMKKVNYAAIDIGSNAVRLLIKCVNEENAPELMSKVQLIRIPLRLGEDAFTMGVISAEKEKKLIRLMKAYKQLMKIYDVVDYRACATSAMRDARNGKDIARQIARKTGIRVDIIDGQEEAHIVYDNHIEQLFASGQNYLYVDVGGGSTEINLISNGELKNSRSYNIGTVRMLSGMVKEEEKEALRTDLIGLAAEYAPTSIIGSGGNINKLFRLADKKDKKASLLPVESLREIYEALQALPAEQRIKQYKLKPDRADVIVPAAEIFLEVAMNVKATGIIVPTIGLSDGIIDSLYTQKMNTPVAPKVQ | not soluble
4 | MFRIASSSYSQFIASANPSIQTRCISIARIDQKIKRGNSDRRVIHAKKFTKQTDSPASVAGDGFILSKTFLQNAIAHQPPSGLTPVGRDGGRDEKKLILHPKEIVEHLNKYVVGQEEAKKYLAVAVYQHYRRVENNLRVTEQWMLSEAVAAAKERKKMRKQNPEEEEYYPEYVQKSQRQILKDLEKRQDMILDKSNMILLGASGTGKTFMTQKLAEVLDVPIVICDCTTLTQAGYVGDDVDTVIQKLLAEAMGDIEKCQRGIVFLDEFDKIYTSSDPLHTSGNRDVSGKGVQQALLKLVEGSLVKVRDPLAPNSKVTIDTSNILFIASGAFSNIEHIVARRMDKRLVTSLLFHFPQ | not soluble
5 | MCPVENKWLKVGQKGAGPGARSSHAMTVVGNKVYCFGGELKPTIHIDNDLYVFDLETQEWSIAPATGEAPFPCFGVSMVTIGSTIYVYGGRDDKRRYNGLHSYDTETNEWKLLAPVEEGLPGRSYHSMAGDDRKVYVFGGVTAKGRVNTLHAYDVVDQKWVEYPAAGEACKGRGAPGLVVVEGRIWVLFGFDGNELGDIHCFDLASEQWKAVETTGDVPAARSVFPAVSYGKYIVIYGGEEEPHELMHMGAGKMSGEVYQLDTETLVWERIVCGNEEEKPSQRGWCAFTKAVKDGEEGLLVHGGNSPTNERLDDLVFWGFSHLNVN | soluble
6 | MGSDKIHHHHHHMAGANNPVITIKRGLDIPIAGEPLQQIDDAPKTTQVALIGEEYVGLKPTMSVEVGDHVVKGQVLFEDKKTPGVLFTAPASGVVCAINRGERRVLQSVVIDCDATQEPAIILESVDIHALSHQAVKDGLVRSGLWTALRTRPFSRVPQLDAAPAGIFVTAIDTNPLAPDPRVIIATQPQAFQAGLFALTFLTTEKVYLCQDDGASLLADASSEYDLSKVSVQRFNGVHPAGLVGTHIHFLLPASIERQVWHVGYQDVIAFGKLFLTGELYTDRIVALGGPNVLKPRLVRTQLGAKLSEWVNGEIDQRQSRIVSGSLLSGHTAADVYDFLGRFHNQISVLTENERQELLPWVRHDSSKFSLTGIMMSGFSRTKKLFDFTTNAGGSPRAMMAFGQLARVMPLDILPILLVRDLVVRDTDEAQLLGALELDEEDLALCTFVCPGKYDFGKELRACLDIIEREG | not soluble
7 | MSLSENPIASVRLLRLQREEASLQQYRDNIGALKSQLTKNETLLDGISANLRDARDLLVAAANQPPTDDLKAMASPLVSLRDSILYAANTKDSEGRYMFSGSAVNNAAIVVDDTQPAGSRYRYNGNGDRQRVTVGEGVTEASNVTLESMAPLLNQLDKAIATLQSPTLDSKDPAVGATIREVMGGVDTALDRVGGTISELGGAQNVLKTLDGNHDSLSLANQESIIELGSLDYGTAYIAMNNLSMALQTSQKAYGKVSQLTLFDVIEGHHHHHH | soluble
8 | MFILSAQRLSGTQVFRRLAEGCTGYSVSSGCRQRRRCCPGAPQRPRRVRVNALQLQSGLADPLDPKSEAEVREHLRSNSPAERALGINYARYLDESTRYDILLEMMEDTDPQVRYAAVTQLATVGSHDRQRTLKAVRKILWNTEEDASVRAGAADVLGGLRFHEAFPDLEKLFHESKDWVVRFSIIAALGEMGVREAFPILVEALHANKEPLVQLAAIGALGELGDERARVYLEPLVNSSDASIVERARFALDALDARGSERT | not soluble
9 | MSNDQLKSKLREFFDRQPDQSEKAHQDSKIFEVLYSQFLENQHCIDWNSWKFLEEKHQVTLKDLEPFDKSRFNILNKLAVIKLNGGLGTTMGCSKAKSLVEVREGYTFMDLAVLEHQKMCEAHNVDTPLYLMNSFYTDEDTKKYLAEKGYSNVKTFVQSKCPRLDAETKLPIEDENEDWGDDAWCPPGHGNIFQSLQNSGVLDQLLADGREIIFVSNIDNTGANTDLQIVQLMLDKNVDYIMECTPKTQVDVKGGTLIDIGGRMMHLEMPQVPAENLPDFCSTKVFKIFNTNNIYVNLKAVKKLLPDIKSEIIVNKKTIRSREVLQLEFSIGGCIKNFDNALCVHVERKRFRPVKNLGDLLSLRSTLCDLDHSTFKVHHNHELGAPPVISLDPSIYNSVEVVDLKFPHPLVMDNCSEFAVVGDVTFGKNVKLSGKVTVNGKTESPGVVPDGTVLKDQEYIAE | not soluble
10 | MGSDKIHHHHHHMKLDLVRFFQACNPSKTLVVSKPEDRQYYIDFSKVRGAKIIEELGRTITRLSPEQPTCQLFTGHIGCGKSTELLRLKAELEQQGFHVVYFESSQSLDMADIDVTDILLAVAREVSQSLEAIKINLKPGYFKNLFTEISEFLQTPLDIGVEAELSVGIAKITAKTKDSPKLRGQLRQYLEPRTNGILESINKELLKPAREKLKQEGKKGLVVIIDNLDRVDNSLKPSGYYQPEYLFVERGEQLNQLNCHVVYTIPLVLIFSNALGRLINRFGIDPKVLPMVPVQVQDGSQFLQGITLLQQMVMARAFPGVSWEQSRHLITEVFDSLDTLERLCRVSGGHLRNLLMLLFRCLQQEDPPLSRECVDRVIKQRRNELTLAITPDEWELLHEVAQEKNLRGHERYDLLLRSMFVFEYRDEDGSWFDINPILAEAKEFRL | not soluble
11 | MPTVNVIGAGLAGSEAAWQIAQAGVDVNLYEMRPVKMTPAHHTSNFAELVCTNSLRANQITNAVGLLKEEMRQLHSIIIQSADATAVPAGGALAVDREPFSELVTQKLTSNSHIHVVNEELSAFPDGITVVATGPLTAPGLAQAIVDLNGEAGLSFFDAAAPILDANTINEDIVYKKSRYDRGEAAYLNCPMTKDEFLAFYQALVSAEVAEGHDFEKMTVFEGCMPIEVMAKRGIKTMLFGPLKPVGLEDPRTGKEPYAVVQLRQDNAAASLYNMVGFQTHLKWGEQKRVFRLIPGLENVQIVRYGVMHRNTFMKSPVVLEPTYASKRRPDLFFAGQMTGVEGYVESAASGLIAGINATRMALGETPVIFPETTAMGSMAHYITHTSAHHFQPMNANFGIMPALTVKIRNKKERNQQLADRALKDLATFQAGMNRVEQVLEHHHHHH | soluble
12 | MGSDKIHHHHHHARRNVLRKTWMNPENSEIIKDGRMKALFLVGMTDGDDSRMRKVVMEEARIYGDMVVVDLKDTYEELPFKSLTTLLYGTSKASEFKLIGKIDEDIMFFPDKILPLLEQNLIDPSSESIYGMLFAEGGYVYRDKEHRWFVPDSTYGCDMFPPYTGGLFYLVTQDAAKKILNATKHRIFIPIEDALINGILANDCKIPRIHLPEIYGDHHSLTDEDTRGVLAWHTGKNDQQFLDYFYRKLSESRLKKKILDEKNKHLFY | not soluble
13 | MAHHHHHHMGTLEAQTQGPGSMRRVVVTGMGIVSSIGSNTEEVTASLREAKSGISRAEEYAELGFRCQVHGAPDIDIESLVDRRAMRFHGRGTAWNHIAMDQAIADAGLTEEEVSNERTGIIMGSGGPSTRTIVDSADITREKGPKRVGPFAVPKAMSSTASATLATFFKIKGINYSISSACATSNHCIGNAYEMIQYGKQDRMFAGGCEDLDWTLSVLFDAMGAMSSKYNDTPSTASRAYDKNRDGFVIAGGAGVLVLEDLETALARGAKIYGEIVGYGATSDGYDMVAPSGEGAIRCMKMALSTVTSKIDYINPHATSTPAGDAPEIEAIRQIFGAGDVCPPIAATKSLTGHSLGATGVQEAIYSLLMMQNNFICESAHIEELDPAFADMPIVRKRIDNVQLNTVLSNSFGFGGTNATLVFQRYQG | soluble
14 | MAEIFRIPEEKFRDKVHKSLEENVTWVERETGRLPSYEEVEEFLVEEFSKVIPFEGEEPVPEEAIELADKLKEEFTSEEVLLEDTGRKHRAIKLREGVYLRTAVHKAQGGLIRTEVYTDGEVIERVKIYGDFTLYPKESLKELEEKLKGIKFEPEEIKKVAHEFLQKVDMPGVSAEDLVIAIYG | soluble
15 | MINLELGKDFLDRFTKVCEFLRVEPSLDVVVFECESLEEFHEITGMPYHTGGVYHEGVIYTQPLDVLRRKNSLEATILHELLHHVLEMYFDLPRWMEEGVVLAVLGVKPEEVFGYHRDCLLRFMEKVRYEEIPDLVDRYRRSSVERRLEHHHHHH | soluble
